Source: paper PMC8351461 (Frontiers in Immunology, 2021)

B1: single-domain antibody sdAb-C2 (VHH)
VHH: EVQLQASGGGLVRPGGSLRLSCAASGFTFSSYAMMWVRQAPGKGLEWVSAINGGGGSTSYADSVKGRFTISRDNAKNTLYLQMNSLKPEDTAVYYCAKYQAAVHQEKEDYWGQGTQVTVSS
notes: not shown: His6, C-terminal, kept
B2: single-domain antibody sdAb-N3 (VHH)
VHH: KVKLQQSGGGLVQTGGSLRLSCAPSGRTFSVNAMGWYRQAPGKQREPVALISTGGSTNYADSVKGRFTISRDNVKNTVYLQMNTLKPEDTAVYYCYTERWKPRGIERDWGQGTQVTVSS
notes: as for B1
B3: single-domain antibody sdAb-E2 (VHH)
VHH: EVQLQASGGGLVQAGGSLRLSCAASGRTDSTQHMAWFRQAPGKEREFVTAIQWRGGGTSYTDSVKGRFTISRDNAKNTVYLEMNSLKPEDTAVYYCATNTRWTYFSPTVPDRYDYWGQGTQVTVSS
notes: as for B1
B4: single-domain antibody sdAb-B6 (VHH)
VHH: EVQLQASGGGLVQAGDSLRLSCVAVSGRTISTFAMGWFRQAPGKEREFVATINWSGSSARYADPVEGRFTISRDDAKNTVYLEMSSLKPGDSAVYYCASGRYLGGITSYSQGDFAPWGQGTQVTVSS
notes: as for B1

Experiments:
Test in all cases: pull-down
Details in all cases: both partners purified
[1] = biological target: T1, SARS-CoV-2 N protein RNA-binding domain (residues 49-174) (SARS-CoV-2, UniProt P0DTC9)
T1 construct: also called N^49-174; N^RBD

[2] = biological target: T2, SARS-CoV-2 Nucleocapsid (N) protein, full-length (SARS-CoV-2, reference Wuhan-Hu-1 …, UniProt P0DTC9)
T2 construct: also called full-length N; FL

[3] = biological target: T3, SARS-CoV-2 N protein C-terminal intrinsically disordered region (residues 365-419) (SARS-CoV-2, reference Wuhan-Hu-1 …, UniProt P0DTC9)
T3 construct: also called C-IDR

Row | Binder | binding result [1] | binding result [2] | binding result [3]
1 | B1 | binds | binds | 
2 | B2 |  | binds | binds
3 | B3 |  | binds | 
4 | B4 |  | binds | 
